# Results reported in US20200131227A1, “POLYPEPTIDE WITH TUMOUR BINDING ACTIVITY” (RUPRECHT-KARLS-UNIVERSITÄT HEIDELBERG, priority 2017, published 2020).
# Where a SMILES comes first, the peptide text is derived from it. Bridges are numbered along the chain shown (N, C = ends). The star is where a group is joined. DOTA = O=C(O)CN1CCN(CC(=O)O)CCN(CC(=O)*)CCN(CC(=O)O)CC1
# How the values were obtained:
# [1] = system: NSCLC; settings: human, in vivo
# Procedure: (§1) The PET/CT scan was performed 1 and 3 hours post tracer administration with a Biograph mCT Flow™ PET/CT-Scanner (Siemens Medical Solution) using the following parameters: slice thickness of 5 mm, increment of 3-4 mm, soft-tissue reconstruction kernel, care dose Immediately after CT scanning, a whole-body PET was acquired in 3D (matrix 200×200) in FlowMotion™ with 0.7 cm/min. The emission data were corrected for random, scatter and decay. Reconstruction was conducted with an ordered subset expectation maximisation (OSEM) algorithm with 2 iterations/21 subsets and Gauss-filtered to a transaxial resolution of 5 mm at full-width half-maximum (FWHM). Attenuation correction was performed using the low-dose non-enhanced CT data. The quantitative assessment of standardized uptake values (SUV) was done using a region of interest technique.
# [2] = system: recurrent hypopharynx carcinoma; settings: human, in vivo
# Procedure: as §1
# [3] = Small-animal PET imaging, HNO399 xenografts; set-up: species or system mice; settings: Balb/c nude, mouse, in vivo, iv, total radioactivity
# [4] = system: HNO97 xenografts; assay: in vivo; settings: mouse
# Procedure: (§2) All experiments were conducted in compliance with the German animal protection laws. Eight week old Balb c/c nude mice (Charles River Laboratories) were inoculated subcutaneously at the right shoulder with 5×10^6 HNO97 cells in BD MatriGel™ (BD Bioscience). Xenografts were grown to a tumor diameter of 10-15 mm. For small animal-PET imaging mice were anesthetized using isoflurane inhalation and injected via tail-vein with 50 MBq (2 nmol) of the ^68Ga-labeled DOTA-SFITGv6 peptide (see above) solution in 100 μL PBS. Images were recorded on an Inveon small-animal PET scanner (Siemens) using a 60 min emission scan in list mode and a 10 min transmission scan. Images were taken in 3-dimensional (3D) mode and reconstructed iteratively with a fully 3D algorithm from a 256×256 matrix for viewing transaxial, coronal, and sagittal slices of 0.9 mm thickness. Pixel size was 0.38×0.38×0.79 mm3 and transaxial resolution obtained was 0.9 mm. For blocking experiments 100 μL of a 1 mM aqueous solution of SFITGv6 was pre-administered intraperitoneally 30 min before injection of the radiolabeled peptide. Biodistribution studies were performed after administration of 100 μL of a 20 nM ^177Lu-DOTA-SFITGv6 solution (1 MBq) as an intravenous bolus injection into the tail vein of the mice. After different time points (30 min to 6 hours) three animals, respectively, were sacrificed. Peripheral blood, heart, lung, spleen, liver, kidneys, muscle, brain, intestine, and injection site (tail, after intravenous injection only) were collected and weighted. Tissue-associated radioactivity was measured in a gamma counter (Berthold LB951G) and expressed as percentage of the injected dose per gram tissue (% ID/g).
# (§3) All animal experiments were conducted in compliance with the German animal protection laws. For in vivo small animal PET imaging and organ distribution studies eight-week old Balb/c nude mice (Charles River Laboratories) were inoculated subcutaneously at the right shoulder with a total of 5×10^6 tumor cells in MatriGel (BD Bioscience). Xenografts were grown until a tumor diameter of 10-15 mm was reached.
# (§4) 3-dimensional (3D) PET images of whole mice were captured by the Siemens Inveon PET scanner as described in Example 1. To assess the biodistribution 100 μL of a 20 nM solution (1 MBq) of ^177Lu-DOTA-SFLAP3 and ^177Lu-DOTA-SFITGv6 were administered as an intravenous bolus injection into the tail vein of mice. For each time point (30 min to 6 hours) we sacrificed a total of three animals, and subsequently collected peripheral blood, heart, lung, spleen, liver, kidneys, muscle, brain, and intestine. Tissues were weighed and respective radioactivity was measured by a gamma counter (LB951G, Berthold Technologies). Values were expressed as percentage of the injected dose radioactivity (MBq) per gram tissue (% ID/g).
# [5] = in vivo; settings: Balb/c nude, mouse, iv, total radioactivity
# Procedure: as §2, §3, §4
# [6] = Small-animal PET imaging, HNO223 xenografts; set-up: species or system mice; settings: Balb/c nude, mouse, in vivo, iv, total radioactivity
smiles,measurement,setting,value
"CSCC[C@@H]1NC(=O)[C@H](CC(C)C)NC(=O)[C@H](CC(=O)O)NC(=O)CNC(=O)[C@H](CCCNC(=N)N)NC(=O)[C@H](Cc2ccccc2)NC(=O)[C@H]([C@@H](C)O)NC(=O)[C@@H](NC(=O)[C@H](CCCNC(=N)N)NC(=O)CNC(=O)CN2CCN(CC(=O)O)CCN(CC(=O)O)CCN(CC(=O)O)CC2)CSSC[C@@H](C(=O)N[C@@H](Cc2ccc(O)cc2)C(=O)N2CCC[C@H]2C(=O)N[C@@H](CC(=O)O)C(=O)O)NC(=O)[C@H](CC(C)C)NC(=O)[C@H](CCC(N)=O)NC1=O [^68Ga-DOTA-SFITGv6, metal not drawn] ({DOTA}-GRCTFRGDLMQLCYPD-OH; disulfide 3-13)",SUVmax Shoulder,[1],1.50
same,SUVmax Elbow,[2],1.70
same,SUVmax Gallbladder,[2],1.90
same,SUVmax Hilar,[2],1.00
same,SUV at 1 h,[3],0.33 SUV
same,time after injection until radioactivity accumulated in the tumor,[4],≤ 20 min
same,time for which tumor accumulation was maintained,[4],at least 140 min
same,time of clearance of non-specific activity from the blood,[4],≤ 60 min
same,SUV at 1 h,[5],0.68 SUV
same,SUV at 1 h,[6],0.23 SUV
